Biological target: T1, Human transferrin receptor 1 (TfR), avi-tagged, biotinylated (human, UniProt P02786 101-760)
T1 construct: also called biotinylated TfR
Experiment: flow cytometry on cells; yeast surface display titration; varied TfR concentration, normalized MFU fitted non-linearly, averaged from three experiments; apparent Kd
Details: one partner purified

T1 sequence (P02786 101-760): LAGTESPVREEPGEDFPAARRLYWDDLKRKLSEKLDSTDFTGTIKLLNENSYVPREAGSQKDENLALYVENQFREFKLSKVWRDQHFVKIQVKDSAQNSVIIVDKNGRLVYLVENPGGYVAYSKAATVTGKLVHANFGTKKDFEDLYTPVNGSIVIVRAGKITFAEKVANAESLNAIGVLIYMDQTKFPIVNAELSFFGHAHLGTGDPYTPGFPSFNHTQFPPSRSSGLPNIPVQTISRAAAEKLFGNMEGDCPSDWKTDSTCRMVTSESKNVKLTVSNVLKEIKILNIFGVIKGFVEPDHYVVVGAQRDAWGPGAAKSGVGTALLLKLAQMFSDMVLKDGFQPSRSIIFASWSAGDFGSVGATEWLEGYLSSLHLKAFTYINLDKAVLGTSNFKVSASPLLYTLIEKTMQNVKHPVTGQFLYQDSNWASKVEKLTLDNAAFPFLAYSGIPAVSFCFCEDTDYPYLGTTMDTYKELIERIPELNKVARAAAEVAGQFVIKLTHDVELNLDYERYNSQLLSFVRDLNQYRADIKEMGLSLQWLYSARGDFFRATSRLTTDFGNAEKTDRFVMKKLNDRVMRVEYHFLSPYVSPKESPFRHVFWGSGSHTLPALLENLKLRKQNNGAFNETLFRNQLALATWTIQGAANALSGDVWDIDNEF

Kd: 305 ± 55 nM
B1: TB14.3A T78I (S4.4), yeast surface displayed (designed binder)
chain: MEKRFYVLLIIVEDRKKAYRQVNELLHNFSEYILLRMGQDHRERYQSTIALVLKVDNDAIGALSGKLGQISGVKVMTIPEKRGSLE
modifications: biotinylated

From article PMC12626770 (Protein Science : A Publication of the Protein Society, 2025)
